Source: patent US20260258141A1 (BIOCYTOGEN PHARMACEUTICALS BEIJING, published 2026)
Values belong to the molecule of their own block, whether it stands above or below them.

What was measured:
[1] = molecular target: human IGF1R (insulin-like growth factor 1 receptor) on cells (human) (UniProt P08069); test: flow cytometry on CHO-S-hIGF1R cells, antibody 20 µg/mL
[2] = molecular target: cynomolgus monkey IGF1R on cells (cynomolgus monkey); test: flow cytometry on CHO-S-fasIGF1R cells, antibody 20 µg/mL
Sequence of cynomolgus monkey IGF1R on cells (cynomolgus monkey) (P08069 other isoform, or with tags, fused parts or gaps limits assumed): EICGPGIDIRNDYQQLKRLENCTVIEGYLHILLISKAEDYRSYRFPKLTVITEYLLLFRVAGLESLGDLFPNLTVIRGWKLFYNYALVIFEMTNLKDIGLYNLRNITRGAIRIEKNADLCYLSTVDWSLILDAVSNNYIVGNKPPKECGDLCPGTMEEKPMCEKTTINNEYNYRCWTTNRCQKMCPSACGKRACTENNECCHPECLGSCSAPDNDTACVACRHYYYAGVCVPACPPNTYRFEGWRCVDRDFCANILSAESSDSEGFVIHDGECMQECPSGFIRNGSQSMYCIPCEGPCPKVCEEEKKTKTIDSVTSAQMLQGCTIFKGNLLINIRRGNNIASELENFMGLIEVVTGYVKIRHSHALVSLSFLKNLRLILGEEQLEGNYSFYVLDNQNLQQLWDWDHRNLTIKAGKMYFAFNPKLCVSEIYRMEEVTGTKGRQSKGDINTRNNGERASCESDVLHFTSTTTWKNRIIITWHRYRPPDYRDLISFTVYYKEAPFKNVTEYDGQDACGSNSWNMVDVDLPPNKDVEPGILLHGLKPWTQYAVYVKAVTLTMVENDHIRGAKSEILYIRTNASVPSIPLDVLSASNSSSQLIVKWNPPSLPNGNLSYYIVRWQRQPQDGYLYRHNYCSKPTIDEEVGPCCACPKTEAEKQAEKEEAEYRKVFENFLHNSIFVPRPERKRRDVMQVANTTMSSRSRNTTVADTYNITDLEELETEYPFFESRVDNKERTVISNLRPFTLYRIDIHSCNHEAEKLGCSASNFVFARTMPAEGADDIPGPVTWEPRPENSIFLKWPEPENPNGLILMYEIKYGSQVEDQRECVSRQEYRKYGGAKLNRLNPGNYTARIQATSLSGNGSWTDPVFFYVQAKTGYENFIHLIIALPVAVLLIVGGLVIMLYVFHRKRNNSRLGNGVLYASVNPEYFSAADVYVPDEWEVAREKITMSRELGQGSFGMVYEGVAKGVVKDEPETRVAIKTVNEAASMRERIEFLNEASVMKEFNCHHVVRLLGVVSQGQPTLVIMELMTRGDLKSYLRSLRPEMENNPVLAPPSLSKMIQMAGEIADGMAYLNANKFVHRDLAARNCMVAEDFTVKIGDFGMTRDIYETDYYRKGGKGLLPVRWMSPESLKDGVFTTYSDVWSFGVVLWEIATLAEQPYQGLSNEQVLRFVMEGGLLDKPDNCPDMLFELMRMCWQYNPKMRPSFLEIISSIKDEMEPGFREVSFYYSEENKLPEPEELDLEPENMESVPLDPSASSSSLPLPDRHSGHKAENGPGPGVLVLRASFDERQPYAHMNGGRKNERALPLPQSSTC

[3] = molecular target: T1, human insulin receptor INSR on cells (human, UniProt P06213 28-1382); test: flow cytometry on CHO-S-hINSR cells, antibody 20 µg/mL
T1 construct: Expressed on CHO-S cells; also called hINSR; CHO-S-hINSR cells
T1 sequence (P06213 other isoform, or with tags, fused parts or gaps limits assumed): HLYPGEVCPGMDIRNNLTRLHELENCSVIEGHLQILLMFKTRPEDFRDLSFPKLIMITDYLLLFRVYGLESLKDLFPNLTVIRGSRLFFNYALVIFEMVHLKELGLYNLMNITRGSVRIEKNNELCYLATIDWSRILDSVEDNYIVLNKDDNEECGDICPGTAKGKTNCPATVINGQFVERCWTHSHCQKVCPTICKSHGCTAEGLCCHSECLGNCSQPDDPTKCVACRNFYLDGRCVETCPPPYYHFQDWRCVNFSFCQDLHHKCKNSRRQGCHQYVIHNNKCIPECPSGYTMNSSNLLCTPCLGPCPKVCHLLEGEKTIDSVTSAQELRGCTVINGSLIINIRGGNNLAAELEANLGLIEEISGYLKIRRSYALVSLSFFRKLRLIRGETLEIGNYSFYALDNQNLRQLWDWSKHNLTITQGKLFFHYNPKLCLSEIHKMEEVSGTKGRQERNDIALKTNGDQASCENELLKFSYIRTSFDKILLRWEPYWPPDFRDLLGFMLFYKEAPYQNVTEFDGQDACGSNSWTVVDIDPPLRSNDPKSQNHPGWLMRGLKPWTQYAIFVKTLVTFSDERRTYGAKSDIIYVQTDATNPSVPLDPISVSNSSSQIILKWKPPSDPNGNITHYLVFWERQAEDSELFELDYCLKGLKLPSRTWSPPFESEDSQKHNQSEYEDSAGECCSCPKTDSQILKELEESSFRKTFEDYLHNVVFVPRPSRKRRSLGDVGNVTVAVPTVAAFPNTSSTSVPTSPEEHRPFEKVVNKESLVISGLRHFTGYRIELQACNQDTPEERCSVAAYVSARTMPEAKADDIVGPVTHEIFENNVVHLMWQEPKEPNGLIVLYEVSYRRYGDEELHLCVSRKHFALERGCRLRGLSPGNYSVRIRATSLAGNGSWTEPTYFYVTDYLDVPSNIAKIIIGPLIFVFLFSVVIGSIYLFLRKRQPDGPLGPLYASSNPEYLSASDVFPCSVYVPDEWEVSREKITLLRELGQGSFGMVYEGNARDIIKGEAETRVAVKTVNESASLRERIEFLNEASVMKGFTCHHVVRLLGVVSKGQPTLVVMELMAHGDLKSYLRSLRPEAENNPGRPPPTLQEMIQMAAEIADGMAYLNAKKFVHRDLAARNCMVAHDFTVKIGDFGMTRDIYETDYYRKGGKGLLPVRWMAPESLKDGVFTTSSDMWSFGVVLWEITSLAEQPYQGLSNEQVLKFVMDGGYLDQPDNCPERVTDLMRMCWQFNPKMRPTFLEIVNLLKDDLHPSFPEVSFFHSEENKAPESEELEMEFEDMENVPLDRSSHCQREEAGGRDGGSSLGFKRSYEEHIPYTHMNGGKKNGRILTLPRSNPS
Method: INSR (insulin receptor) and IGF1R are both members of the superfamily of receptor tyrosine kinases (RTKs). The binding activity of anti-IGF1R antibodies to human IGF1R, human INSR and monkey IGF1R was verified by flow cytometry. Briefly, CHO-S-hIGF1R cells (expressing human IGF1R (SEQ ID NO: 45), CHO-S-fasIGF1R cells (expressing cynomolgus monkey IGF1R (SEQ ID NO: 46) and CHO-S-hINSR (expressing SEQ ID NO: 47) were plated in a 96-well plate at a density of 2×10⁵ cells/well respectively. Purified anti-IGF1R antibody with a concentration of 20 μg/mL was added to each well and was incubated at 4° C. for 30 minutes. Then, after one wash with PBS, the cells were incubated with the secondary antibody Alexa Fluor® 647 anti-human IgG Fcγ (Jackson ImmunoResearch Laboratories, Inc., Cat #: 109-606-170) at 4° C. for 15 minutes before flow cytometry analysis. Human IgG1 was used as ISO control.

Sequence of human IGF1R (insulin-like growth factor 1 receptor) on cells (human) (P08069 31-1367 limits assumed): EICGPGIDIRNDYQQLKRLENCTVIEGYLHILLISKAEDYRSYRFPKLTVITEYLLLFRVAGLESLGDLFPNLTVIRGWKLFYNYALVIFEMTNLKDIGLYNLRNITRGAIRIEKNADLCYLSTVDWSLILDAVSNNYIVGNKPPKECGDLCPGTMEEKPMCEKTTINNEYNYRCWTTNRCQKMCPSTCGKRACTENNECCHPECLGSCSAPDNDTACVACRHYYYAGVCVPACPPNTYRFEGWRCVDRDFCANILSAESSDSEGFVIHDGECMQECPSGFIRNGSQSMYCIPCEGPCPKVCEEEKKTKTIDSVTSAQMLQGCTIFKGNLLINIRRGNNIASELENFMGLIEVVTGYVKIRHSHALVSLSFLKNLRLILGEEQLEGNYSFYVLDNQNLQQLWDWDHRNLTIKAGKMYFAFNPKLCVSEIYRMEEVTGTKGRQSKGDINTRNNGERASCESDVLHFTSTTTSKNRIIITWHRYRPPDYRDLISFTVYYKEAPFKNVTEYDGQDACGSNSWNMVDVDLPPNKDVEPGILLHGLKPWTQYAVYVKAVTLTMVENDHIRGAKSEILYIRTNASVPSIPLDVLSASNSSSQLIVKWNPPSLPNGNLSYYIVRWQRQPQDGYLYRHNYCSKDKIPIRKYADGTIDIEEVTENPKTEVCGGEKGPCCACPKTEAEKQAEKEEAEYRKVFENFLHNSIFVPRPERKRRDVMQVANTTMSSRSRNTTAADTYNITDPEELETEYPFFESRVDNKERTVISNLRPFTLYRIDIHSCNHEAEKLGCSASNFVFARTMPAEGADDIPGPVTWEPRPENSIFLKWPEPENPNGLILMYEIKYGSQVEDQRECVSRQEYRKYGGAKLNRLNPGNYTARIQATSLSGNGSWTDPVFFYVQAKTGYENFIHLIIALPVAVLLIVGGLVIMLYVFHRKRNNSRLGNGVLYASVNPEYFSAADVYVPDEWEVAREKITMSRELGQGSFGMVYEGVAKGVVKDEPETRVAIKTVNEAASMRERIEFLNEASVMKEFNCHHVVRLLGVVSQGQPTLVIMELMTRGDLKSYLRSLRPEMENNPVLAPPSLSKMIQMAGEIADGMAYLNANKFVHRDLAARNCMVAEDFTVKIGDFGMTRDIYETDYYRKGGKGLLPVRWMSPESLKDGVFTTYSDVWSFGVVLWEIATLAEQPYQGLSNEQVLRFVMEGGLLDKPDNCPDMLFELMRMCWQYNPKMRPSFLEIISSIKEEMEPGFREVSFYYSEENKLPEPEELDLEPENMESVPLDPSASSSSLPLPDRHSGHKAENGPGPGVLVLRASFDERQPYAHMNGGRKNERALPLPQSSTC

Percentage of positive cells [1]: 0.7%
Percentage of positive cells [2]: 0.3%
Percentage of positive cells [3]: 0.4%
Molecule: Human IgG1 ISO control (antibody)

Percentage of positive cells [3]: 1.5%
B1: Teprotumumab analog (antibody, V domains shown)
VH: QVELVESGGGVVQPGRSQRLSCAASGFTFSSYGMHWVRQAPGKGLEWVAIIWFDGSSTYYADSVRGRFTISRDNSKNTLYLQMNSLRAEDTAVYFCARELGRRYFDLWGRGTLVSVSS
VL: EIVLTQSPATLSLSPGERATLSCRASQSVSSYLAWYQQKPGQAPRLLIYDASKRATGIPARFSGSGSGTDFTLTISSLEPEDFAVYYCQQRSKWPPWTFGQGTKVESKR
notes: also called positive control
